Changes are numbered by the printed parent chain. A value given as a limit tells only on which side of the number the result lay.

Data on 13 molecules can be found in patent US20220204630A1 (SUNSHINE LAKE PHARMA, published 2022).

Assay [1] has as its target T1, Mouse-TrKA protein (mouse, UniProt Q3UFB7 34-420, limits assumed).
T1 construct: also called Mouse-TrKA receptor
Put plainly: ELISA, hybridoma supernatant on Mouse-TrKA. The source says:
The binding of monoclonal antibodies produced by the supernatant of each positive clone to the Mouse-TrKA receptor was detected by ELISA method, and the human-mouse cross reaction of positive clones producing monoclonal antibodies was detected. In FIG. 3, the OD₄₅₀ value reflects the strength of the binding of the antibody to the protein. The larger the reading, the stronger the binding of the antibody to the protein. […] It can be seen that clones 23E12, 21E5, 15D4, and 27H3 can produce monoclonal antibodies that bind to both Human-TrKA and Mouse-TrKA, and there is a human-mouse cross reaction.

The target of assay [2] is T2, TrkA protein on HEK-293T-TrkA cells or NIH-3T3-TrkA cells (human, UniProt P04629 33-796). Put plainly: cell-based or functional assay.
In assay [3] the target is T2, TrkA protein on HEK-293T-TrkA cells or …. Put plainly: flow cytometry, antibody titrated on HEK-293T-TrKA cells, Parent %. The source says:
(§1) In FIG. 7, the EC₅₀ (half-binding concentration) value reflects the affinity of the antibody. The smaller the EC₅₀ value, the higher the affinity of the antibody.

Assay [4] shares this target. Put plainly: flow cytometry competition: antibody titrated against biotinylated NGF binding to HEK-293T-TrkA cells, % parent.
The target in assay [5] is T3, TrKA receptor protein coated in ELISA (Examples 11 and 16) (human, UniProt P04629 33-423, limits assumed).
T3 construct: also called Human-TrKA
Kind of assay: ELISA plateau, antibody up to 20 µg/mL on TrKA. As for the experimental part:
The TrkA receptor family belongs to receptor tyrosine kinases (RTKs), including TrkA, TrkB, and TrkC, which have high homology. TrkA is a receptor tyrosine kinase of nerve growth factor (NGF) that selectively binds to NGF and is a functional receptor for NGF. In addition to the high-affinity receptor TrkA, NGF can also bind to its low-affinity receptor p75. In the test, the binding of test antibodies at different concentrations (20 μg/mL, 10 μg/mL, 5 μg/mL, 2.5 μg/mL, 1.25 μg/mL, 0.625 μg/mL, 0.313 μg/mL, 0.156 μg/mL, 0.078 μg/mL, 0.039 μg/mL, 0.019 μg/mL) to TrKA, TrKB, TrKC, and P75 respectively was detected by the ELISA method, and the specificity of the test antibody binding to the target TrKA was evaluated. In the FIG. 8, at a certain antibody concentration, the OD₄₅₀ value reflects the binding strength of the antibody to the protein. The larger the reading, the stronger the binding of the antibody to the protein. […] It can be seen that the specificity of the binding of the test antibodies to the target TrKA is very good.

In assay [6] the target is T2, TrkA protein on HEK-293T-TrkA cells or …. Kind of assay: flow cytometry on HEK-293T-TrKA cells.
Source text: as §1

Assay [7] concerns the target T4, TRKA protein with a histidine tag (human, UniProt P04629 33-423, limits assumed).
T4 construct: it is put last here only for order; also called TRKA (50 µg/ml, 75 kDa, provided by HEC Labs); not shown: histidine tag
Put plainly: BLI (Fortebio Octet RED96), His-tagged TRKA on Ni-NTA sensor, antibody 80-2.93 nM. The method, then: They were added to each well of the sample plate. […] The KD value is the equilibrium dissociation constant between the antibody and its antigen, and the KD value is inversely proportional to the affinity. The KD value is related to the antibody concentration (the amount of antibody required for a particular experiment). The lower the KD value (the lower the concentration), the higher the affinity of the antibody. High-affinity antibodies are generally considered to be in the low nanomolar range (10⁻⁹).

Assay [8] addresses T3, TrKA receptor protein coated in ELISA …. Put plainly: competition ELISA: antibody titrated against biotinylated NGF binding to TrkA, OD450.

T4 sequence (P04629 33-423 limits assumed): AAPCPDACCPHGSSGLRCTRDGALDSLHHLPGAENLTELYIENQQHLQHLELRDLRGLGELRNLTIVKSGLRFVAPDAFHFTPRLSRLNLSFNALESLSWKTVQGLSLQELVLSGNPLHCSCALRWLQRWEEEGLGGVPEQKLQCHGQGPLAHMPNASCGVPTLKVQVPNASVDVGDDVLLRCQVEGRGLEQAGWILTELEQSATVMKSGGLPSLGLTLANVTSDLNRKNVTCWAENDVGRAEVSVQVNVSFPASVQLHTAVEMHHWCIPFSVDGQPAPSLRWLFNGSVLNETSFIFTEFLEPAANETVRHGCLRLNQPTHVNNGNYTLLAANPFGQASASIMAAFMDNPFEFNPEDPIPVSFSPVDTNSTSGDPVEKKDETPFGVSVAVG
T3 sequence (P04629 33-423 limits assumed): as above
T2 sequence (P04629 33-796): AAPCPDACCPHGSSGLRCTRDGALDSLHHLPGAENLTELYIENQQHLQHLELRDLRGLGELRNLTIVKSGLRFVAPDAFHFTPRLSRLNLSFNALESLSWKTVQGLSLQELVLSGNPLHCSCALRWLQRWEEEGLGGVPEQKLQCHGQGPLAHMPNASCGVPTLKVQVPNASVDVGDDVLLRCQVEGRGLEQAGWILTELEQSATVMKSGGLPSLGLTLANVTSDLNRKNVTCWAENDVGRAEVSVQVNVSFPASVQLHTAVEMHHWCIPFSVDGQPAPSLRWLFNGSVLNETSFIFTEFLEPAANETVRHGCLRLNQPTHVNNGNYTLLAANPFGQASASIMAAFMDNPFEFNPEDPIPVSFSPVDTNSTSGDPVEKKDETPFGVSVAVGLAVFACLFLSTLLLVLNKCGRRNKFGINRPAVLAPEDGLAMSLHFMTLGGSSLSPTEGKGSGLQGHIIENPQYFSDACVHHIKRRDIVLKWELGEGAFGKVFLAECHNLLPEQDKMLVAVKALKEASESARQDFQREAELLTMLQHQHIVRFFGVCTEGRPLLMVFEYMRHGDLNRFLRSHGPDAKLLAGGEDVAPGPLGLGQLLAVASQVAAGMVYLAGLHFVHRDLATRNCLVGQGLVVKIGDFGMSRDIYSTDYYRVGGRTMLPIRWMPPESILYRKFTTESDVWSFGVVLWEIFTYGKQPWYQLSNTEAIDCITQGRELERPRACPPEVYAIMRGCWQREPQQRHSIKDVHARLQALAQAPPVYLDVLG
T1 sequence (Q3UFB7 34-420 limits assumed): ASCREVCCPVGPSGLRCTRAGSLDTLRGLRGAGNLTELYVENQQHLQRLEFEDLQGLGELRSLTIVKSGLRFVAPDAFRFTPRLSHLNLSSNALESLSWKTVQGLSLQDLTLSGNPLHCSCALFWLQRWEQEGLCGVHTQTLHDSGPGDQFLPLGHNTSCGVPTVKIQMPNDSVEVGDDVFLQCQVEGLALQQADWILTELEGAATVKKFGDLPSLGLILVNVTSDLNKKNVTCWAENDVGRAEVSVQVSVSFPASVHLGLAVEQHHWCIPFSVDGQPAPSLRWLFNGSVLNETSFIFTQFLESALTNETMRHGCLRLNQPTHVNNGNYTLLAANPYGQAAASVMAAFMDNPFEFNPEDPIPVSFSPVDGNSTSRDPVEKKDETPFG

B1: mouse monoclonal antibody produced by hybridoma clone 23E12 (antibody, V domains shown)
VH: QVQLQQSGAELVRPGTSVKISCKASGYAFTNYWLGWMKQRPGHGLEWIGDFYPRTGNTFYNENFKGKVTLTADKSSNTAYMQLSSLTSEDSAVYLCARAGTGFDYWGQGTTLTVSS
VL: SIVMTQSPKSMSMSVGERVTLSCKASENVGGYVSWYQQKPDQSPKLLIYGASSRHTGVPDRFTGSGSETDFTLTISSVQAEDLAAYHCGQNYIYPFTFGGGTKLEIK
notes: also called 23E12 (positive clone supernatant)
As to B1, in assay [1], the OD450 is approximately 3.5 OD450.

B2: MNAC13 (anti-TrKA monoclonal antibody, positive control) (antibody, human IgG4 S228P, kappa, F234A L235A, V domains shown)
VH: EVQLLESGGGLVQPGGSLRLSCAASGFTFSTYTMSWARQAPGKGLEWVAYISKGGGSTYYPDTVKGRFTISRDNSKNTLYLQMNSLRAEDSAVYYCARGAMFGNDFFFPMDRWGQGTLVTVSS
VL: DIVLTQSPSSLSASVGDRVTITCSASSSVSYMHWYQQKPGQAPKLLIYTTSNLASGVPSRFSGSGSGTDYTLTISSLQPEDVATYYCHQWSSYPWTFGGGTKVEIKR
On to B2, for which the “IC50; p-TrkA level by AlphaLISA in NGF-stimulated NIH3T3-TrkA stable cell line” value (“IC50; p-TrkA level by AlphaLISA” for short) in assay [2] is 0.16 mg/L.

B3: 2A5 chimeric antibody (antibody, human IgG4 S228P, kappa, F234A L235A, V domains shown)
VH: EVQLQQSGPELVKPGASMKISCKASGYSFTGYTMNWVKQSHGKNLEWIGLINPYNGGTNYNQKFKGKATLTVDKSSSTAYMELLSLTSEDSAVYYCAFSYYGSRGFYFDYWGQGTTLTVSS
VL: QIVLTQSPALMSASPGEKVTMTCSATSSVSYIYWYQQKPRSSPKPWIYLTSNLASGVPARFSGSGSGTSYSLTISSMEAEDAATYYCQQWSSNPPTFGGGTKLEIKR
notes: expressed in CHO cells
B3: the EC50 in assay [3] was 0.312 mg/L; in assay [6], less than 1.5 mg/L. Besides, the IC50 was found to be 4.8 mg/L in assay [4] and 1.06 mg/L in assay [8]. This molecule had an OD450 in assay [5] of approximately 3 OD450. Moreover, the Kd in assay [7] was 0.0162 nM. In assay [7], this molecule yielded a koff of 3.6e-06 s⁻¹. In assay [7], this molecule returned a kon of 222000 M⁻¹ s⁻¹.

B4: mouse monoclonal antibody produced by hybridoma clone 2A5 (antibody, V domains shown)
VH: B3 VH
VL: QIVLTQSPALMSASPGEKVTMTCSATSSVSYIYWYQQKPRSSPKPWIYLTSNLASGVPARFSGSGSGTSYSLTISSMEAEDAATYYCQQWSSNPPTFGGGTKLEIK
notes: also called 2A5 (positive clone supernatant)
With B4, the binding result in assay [1] is “no binding”.

B5: mouse monoclonal antibody produced by hybridoma clone 15D4 (antibody, V domains shown)
VH: QVQLQQSGAELMKPGASVKISCKATGYTFSSYWIEWVKQRPGHGLEWLGEFLPRSGKTNYNEEFRGKATFTADTSSNTAYMQLSSLTSEDSAVYYCARTDPPYFGVWGAGTMVAVSS
VL: QIVLTQSPPIMSASPGEKVTMTCSASSNISYMHWYQQKSGTSPKRWIYDTSKLASGVPARFSGSGSGTSYSLTISSMEAEDAATYYCQQWSSVPLTFGAGTKLEIK
notes: also called 15D4 (positive clone supernatant)
Turning to B5, the OD450 in assay [1] is approximately 3.5 OD450.

B6: mouse monoclonal antibody produced by hybridoma clone 4H4 (antibody, V domains shown)
VH: EVQLQQSGPELVKPGASMKISCKASGYSFTGYTMNWVKQSHGKNLEWIGLINPYNGGTRYNQKFKGKATLTVDKSSSTAYMELLSLTSEDSAVYYCASSSYRNDGNWYFDVWGAGTTVTVSS
VL: B5 VL with Q1D, L4M, P9A, N28S, I29V, A79T, V93N, L95P, A99G, I105L
notes: also called 4H4 (positive clone supernatant)
As to B6, the binding result in assay [1] is recorded as “no binding”.

B7: mouse monoclonal antibody produced by hybridoma clone 21E5 (antibody, V domains shown)
VH: QVQLQQSGAELMKPGASMKISCKATGYTFSTYWIEWVKQRPGHGLEWIGENLPGRHITNYNEKFKGKATFTADTSSNTAYMQLSSLTSEDSAVYYCARGRGTYYFDYWGQGTPLTVSS
VL: DIVMTQAAFSTPVTLGTSASISCRSSQSLLHSNGITYLYWYLQKPGQSPQLLIYQMSNLASGVPDRFSSSGSGTDFTLRISRVEAEDVGVYYCAQNLEFPFTFGSGTKLEIK
notes: also called 21E5 (positive clone supernatant)
As for B7, the OD450 in assay [1] is approximately 3.5 OD450.

B8: 2008 chimeric antibody (antibody, human IgG4 S228P, kappa, F234A L235A, V domains shown)
VH: EVLLQQSGPELVKPGASMKISCKASVYSFTAYTMNWVKQSHGKNLEWIGLINPHNGGTRYNQKFKGKATLTLDKSSSTAYMDLLSLTSEDSAVYYCAISRYGSSSFYFDVWGAGTTVAVSS
VL: QIVLSQSPAILSASPGEKVTMTCRASSSISYMHWYQQKPGSSPKPWISATSNLASGVPARFSGSGSGTSYSLTISGVEAEDAATYYCQQWSSNPPTFGGGTNLEIKR
notes: also called 20C8
For B8, the figures for the EC50 in assay [3] and in assay [6] were 0.136 mg/L and less than 1.5 mg/L, respectively. Besides, the IC50 in assay [4] turned out to be 0.822 mg/L; in assay [8] it was 0.31 mg/L. In assay [5], the OD450 is approximately 3 OD450. In assay [7], binding was characterised by a dissociation constant (Kd) of 0.115 nM. The koff in assay [7] was 6.33e-05 s⁻¹. Besides, the kon in assay [7] turned out to be 551000 M⁻¹ s⁻¹. Also, the “IC50; p-TrkA level by AlphaLISA” value in assay [2] is 0.11 mg/L.

B9: mouse monoclonal antibody produced by hybridoma clone 2008 (antibody, V domains shown)
VH: B8 VH
VL: QIVLSQSPAILSASPGEKVTMTCRASSSISYMHWYQQKPGSSPKPWISATSNLASGVPARFSGSGSGTSYSLTISGVEAEDAATYYCQQWSSNPPTFGGGTNLEIK
In the case of B9, the binding result in assay [1] is reported as “no binding”.

B10: mouse monoclonal antibody produced by hybridoma clone 27H3 (antibody, V domains shown)
VH: QVQLQQSGAELMKPGASVKISCKTTGYRFSSYWIEWVKQRPGHGLEWLGEILPGRGIINYNENFRGKATFTADTSSNTAYVQLSSLTSEDSAVYFCARTDPPYFGVWGAGTTVTVSS
VL: QAVVTQESALTTSPGETVTLTCRSSTGAVTISNYANWVQEKPDHLFTGLIGGTNNRPPGVPARFSGSLIGDKAALTITGAQTEDEAIYFCVLWYSNHWVFGGGTKLTVL
notes: also called 27H3 (positive clone supernatant)
B10 gave an OD450 in assay [1] of approximately 3.5 OD450.

B11: 1B9 chimeric antibody (antibody, human IgG4 S228P, kappa, F234A L235A, V domains shown)
VH: QVHLQQSGAELMKPGASVKISCKATGYTFNIYWIDWVKQRPGHGLEWIGEILPGSGNTHYNENFKGKATMTADTSSNTAYMQLTSLTSEDSAVYYCARTDGRGYFDYWGQGTTLTVSS
VL: DIVLTQSPASLVVSLGQRATISCRTSKSVSSSAYSYMHWYQQKPGQPPKVLIYLASNLESGVPARFSGSGSGTDFTLNIHPVEEEDAATYYCQHSRELPFTFGSGTKLEIKR
notes: expressed in CHO cells
Consider B11, for which, in assay [3], the EC50 is 0.0372 mg/L. The IC50 in assay [4] amounted to 0.334 mg/L. The OD450 in assay [5] was approximately 3 OD450. The EC50 in assay [6] is less than 1.5 mg/L. In assay [7], the Kd came to 0.899 nM, the koff was 0.000904 s⁻¹ and the on-rate (kon) came out at 1.01e+06 M⁻¹ s⁻¹. Moreover, in assay [2], the “IC50; p-TrkA level by AlphaLISA” value turned out to be 0.0473 mg/L.

B12: mouse monoclonal antibody produced by hybridoma clone 1B9 (antibody, V domains shown)
VH: B11 VH
VL: DIVLTQSPASLVVSLGQRATISCRTSKSVSSSAYSYMHWYQQKPGQPPKVLIYLASNLESGVPARFSGSGSGTDFTLNIHPVEEEDAATYYCQHSRELPFTFGSGTKLEIK
notes: also called 1B9 (positive clone supernatant)
For B12, the binding result in assay [1] is given as “no binding”.

B13: mouse monoclonal antibody produced by hybridoma clone 22D12 (antibody, V domains shown)
VH: EVQLQQSGPELVKPGASMKISCKASGYSITGYTMNWVKQSHGKNLEWIGLVNPYNGGTSYNQKFKGKATLTVDKSSSTAYMELLSLKSEDSAVYYCAISRYGSESWYFDVWGAGTTVTVSS
VL: B9 VL with S26T, I29V, H33Y, S48Y, G76R, N102K, I105K
notes: also called 22D12 (positive clone supernatant)
With B13, in assay [1], the binding result was “no binding”.
